Assay results reported in PMC10253835, “Plakophilin-3 Binds the Membrane and Filamentous Actin without Bundling F-Actin” (International Journal of Molecular Sciences, 2023).

Molecular target: the molecule itself
Test: SEC; purified plakophilin-3 on Superdex S-200 10/300; methods give 20 mM Tris pH 7.5, 150 mM NaCl, 1 mM dithiothreitol; dimer and monomer peaks pooled and reloaded; more dimer at higher concentration and lower reducing conditions, mainly monomer with dithiothreitol or TCEP

B1: plakophilin-3 (residues 305-797) (domain or fragment, human, UniProt Q9Y446 305-797, looked up)
chain: SHRTLQRLSSGFDDIDLPSAVKYLMASDPNLQVLGAAYIQHKCYSDAAAKKQARSLQAVPRLVKLFNHANQEVQRHATGAMRNLIYDNADNKLALVEENGIFELLRTLREQDDELRKNVTGILWNLSSSDHLKDRLARDTLEQLTDLVLSPLSGAGGPPLIQQNASEAEIFYNATGFLRNLSSASQATRQKMRECHGLVDALVTSINHALDAGKCEDKSVENAVCVLRNLSYRLYDEMPPSALQRLEGRGRRDLAGAPPGEVVGCFTPQSRRLRELPLAADALTFAEVSKDPKGLEWLWSPQIVGLYNRLLQRCELNRHTTEAAAGALQNITAGDRRWAGVLSRLALEQERILNPLLDRVRTADHHQLRSLTGLIRNLSRNARNKDEMSTKVVSHLIEKLPGSVGEKSPPAEVLVNIIAVLNNLVVASPIAARDLLYFDGLRKLIFIKKKRDSPDSEKSSRAASSLLANLWQYNKLHRDFRAKGYRKEDFLGP
notes: pET28 construct with eight histidines followed by an HRV-3C site at the amino terminus; no cleavage step is described; The protein is found as monomer and as homodimer; also called armadillo repeat motif domain of plakophilin-3; Pkp3; source: E. coli BL21(DE3) Rosetta2, purified (Ni-nitriloacetic acid column, Superdex S-200 size exclusion)
stoichiometry N: 2
